Assay results taken from patent US20240043515A1 (Chugai, published 2024).

T1: human FcγRIIa H extracellular domain (human, UniProt P12318 34-217)
T1 construct: extracellular domain; also called hFcγR IIa H; FcγRIIa allotype H131
T1 sequence (looked up): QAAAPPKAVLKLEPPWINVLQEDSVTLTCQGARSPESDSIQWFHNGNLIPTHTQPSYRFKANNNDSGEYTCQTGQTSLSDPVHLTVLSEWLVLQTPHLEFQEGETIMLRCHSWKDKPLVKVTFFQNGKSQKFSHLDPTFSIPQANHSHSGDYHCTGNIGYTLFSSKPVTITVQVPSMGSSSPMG

T2: human FcγRIIa R extracellular domain (human, UniProt P12318 34-217)
T2 construct: extracellular domain; also called hFcγR IIa R; FcγRIIa allotype R131
T2 sequence (looked up): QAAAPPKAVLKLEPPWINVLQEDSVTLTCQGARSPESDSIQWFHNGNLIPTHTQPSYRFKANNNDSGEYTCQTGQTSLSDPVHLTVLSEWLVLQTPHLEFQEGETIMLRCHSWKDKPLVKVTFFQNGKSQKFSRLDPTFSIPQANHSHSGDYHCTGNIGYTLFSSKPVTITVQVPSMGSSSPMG

T3: human FcγRIIb extracellular domain (human, UniProt P31994 43-217)
T3 construct: extracellular domain; also called hFcγR IIb
T3 sequence (looked up): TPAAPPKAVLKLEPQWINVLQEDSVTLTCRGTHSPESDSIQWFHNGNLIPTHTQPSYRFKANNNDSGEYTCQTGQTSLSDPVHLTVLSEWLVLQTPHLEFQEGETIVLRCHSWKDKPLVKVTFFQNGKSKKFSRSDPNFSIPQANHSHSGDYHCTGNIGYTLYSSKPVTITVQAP

T4: hFcγRIIaH on Jurkat effector cells (human, UniProt P12318 34-317)
T4 sequence (looked up): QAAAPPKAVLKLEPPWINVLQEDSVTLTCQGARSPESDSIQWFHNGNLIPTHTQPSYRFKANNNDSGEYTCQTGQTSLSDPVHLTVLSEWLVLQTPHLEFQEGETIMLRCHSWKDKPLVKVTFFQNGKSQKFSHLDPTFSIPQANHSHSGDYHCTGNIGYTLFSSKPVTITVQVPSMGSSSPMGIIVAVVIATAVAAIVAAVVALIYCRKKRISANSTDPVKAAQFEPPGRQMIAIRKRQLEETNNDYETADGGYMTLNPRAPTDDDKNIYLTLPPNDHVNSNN


Assays:
[1] = target: T5, human FcγRIIIa F extracellular domain (human, UniProt P08637 17-208); experiment: SPR; KD for hFcγRIIb divided by KD for this FcγR
T5 construct: extracellular domain; also called hFcγR IIIa F; FcγRIIIa allotype F158
Experimental: (§1) The extracellular domains of FcγRs were produced by the method described in WO2014104165. The interaction between the produced antibodies and human FcγRs was analyzed using Biacore 8K+ by the method below. For the running buffer, 50 mM Na-Phosphate, 150 mM NaCl, and 0.05% Tween20 (pH 7.4) was used, and measurement was performed at 25° C. The sensor chip used was a Series S SA chip (GE Healthcare) onto which CaptureSelect Human Fab-kappa Kinetics Biotin Conjugate (Thermo Fisher Scientific) was immobilized. An antibody of interest was captured onto this chip, and each FcγR diluted with the running buffer was allowed to interact with it. The chip was regenerated using 10 mM Glycine-HCl (pH 1.5), and repeatedly used to capture antibodies and perform measurement. The dissociation constants KD (mol/L) of each antibody for FcγRs were calculated using Biacore Insight Evaluation Software, with a steady state affinity model for the dissociation constant for FcγRIIb and a 1:1 Langmuir binding model for the dissociation constants for the other FcγRs (Table 2).

[2] = target: T1, human FcγRIIa H extracellular domain; experiment: SPR; KD for hFcγRIIb divided by KD for this FcγR
Experimental: as §1

[3] = target: T2, human FcγRIIa R extracellular domain; experiment: SPR; KD for hFcγRIIb divided by KD for this FcγR
Experimental: as §1

[4] = target: T5, human FcγRIIIa F extracellular domain; experiment: SPR; KD of G1d divided by KD of this antibody
Experimental: as §1

[5] = target: T6, human FcγRIa extracellular domain (human, UniProt P12314 16-292); experiment: SPR; KD of G1d divided by KD of this antibody
T6 construct: extracellular domain; also called hFcγR Ia
Experimental: as §1

[6] = target: T1, human FcγRIIa H extracellular domain; experiment: SPR; KD of G1d divided by KD of this antibody
Experimental: as §1

[7] = target: T2, human FcγRIIa R extracellular domain; experiment: SPR; KD of G1d divided by KD of this antibody
Experimental: as §1

[8] = target: T3, human FcγRIIb extracellular domain; experiment: SPR; KD of G1d divided by KD of this antibody
Experimental: as §1

[9] = target: hFcγRIIIaV on Jurkat effector cells (human, UniProt P08637 17-254); experiment: cell-based or functional assay
[10] = target: T7, human FcγRIIIa V extracellular domain (human, UniProt P08637 17-208); experiment: SPR; KD for hFcγRIIb divided by KD for this FcγR
T7 construct: extracellular domain; also called hFcγR IIIa V; FcγRIIIa allotype V158
Experimental: as §1

[11] = target: T7, human FcγRIIIa V extracellular domain; experiment: SPR; KD of G1d divided by KD of this antibody
Experimental: as §1

[12] = target: T4, hFcγRIIaH on Jurkat effector cells; experiment: cell-based or functional assay

Sequence of hFcγRIIIaV on Jurkat effector cells (P08637 17-254, form in doubt): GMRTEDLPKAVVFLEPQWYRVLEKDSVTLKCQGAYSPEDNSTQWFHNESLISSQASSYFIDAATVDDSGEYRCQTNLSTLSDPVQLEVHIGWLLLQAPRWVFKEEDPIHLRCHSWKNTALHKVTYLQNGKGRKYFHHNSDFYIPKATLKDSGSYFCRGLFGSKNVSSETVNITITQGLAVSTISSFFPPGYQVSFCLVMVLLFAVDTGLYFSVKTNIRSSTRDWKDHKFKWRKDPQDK
T5 sequence (P08637 17-208): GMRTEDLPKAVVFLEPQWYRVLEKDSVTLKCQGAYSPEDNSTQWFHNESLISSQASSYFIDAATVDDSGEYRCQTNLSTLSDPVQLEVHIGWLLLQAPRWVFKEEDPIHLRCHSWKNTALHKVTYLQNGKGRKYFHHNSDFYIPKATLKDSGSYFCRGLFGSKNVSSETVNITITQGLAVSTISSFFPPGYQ
T6 sequence (P12314 16-292): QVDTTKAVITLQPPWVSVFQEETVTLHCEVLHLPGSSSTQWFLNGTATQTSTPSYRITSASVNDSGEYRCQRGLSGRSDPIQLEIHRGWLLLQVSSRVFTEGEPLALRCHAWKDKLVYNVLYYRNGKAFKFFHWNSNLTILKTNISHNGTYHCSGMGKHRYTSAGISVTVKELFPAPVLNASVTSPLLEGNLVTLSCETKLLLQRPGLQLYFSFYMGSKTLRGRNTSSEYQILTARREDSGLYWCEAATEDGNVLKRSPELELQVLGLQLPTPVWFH
T7 sequence (P08637 17-208 F176V): as the sequence (P08637 17-208) above, with F160V counted along it

Binder | A/I ratio (KD for FcγRIIb divided by KD for each FcγR) [1] | A/I ratio (KD for FcγRIIb divided by KD for each FcγR) [2] | A/I ratio (KD for FcγRIIb divided by KD for each FcγR) [3] | Relative value to KD between G1d and hFcgRs [4] | Relative value to KD between G1d and hFcgRs [5] | Relative value to KD between G1d and hFcgRs [6] | Relative value to KD between G1d and hFcgRs [7] | Relative value to KD between G1d and hFcgRs [8] | EC50 of reporter gene induction (ADCC Reporter Bioassay, Hepa1-6/hEREG target cells) [9] | A/I ratio (KD for FcγRIIb divided by KD for each FcγR) [10] | Relative value to KD between G1d and hFcgRs [11] | EC50 of reporter gene induction (ADCP Reporter Bioassay, Hepa1-6/hEREG target cells) [12]
EGL-G1d (H240-G1d/L73-k0) (antibody, human IgG1, kappa, Anti-human Epiregulin antibody with a human IgG1 constant region lacking C-terminal Gly-Lys (G1d); also called Gld; anti-hEREG control antibody) heavy: not shown light: DIQMTQSPSSLSASVGDRVTITCRASQDIHKYIAWYQQKPGQAPRLLIQYTSTLQPGVPSRFSGSGSGTDYTFTISSLQPEDIATYYCLQYEQLRTFGGGTKVEIKRTVAAPSVFIFPPSDEQLKSGTASVVCLLNNFYPREAKVQWKVDNALQSGNSQESVTEQDSKDSTYSLSSTLTLSKADYEKHKVYACEVTHQGLSSPVTKSFNRGEC | 3.4 ratio | 8.9 ratio | 6.1 ratio | 1 times | 1 times | 1 times | 1 times | 1 times | 0.0463 µg/mL | – | – | –
EGL-SDALIE (H240-Kn032/L73-k0//H240-H1032/L73-k0) (antibody, human IgG1, kappa, S239D/A330L/I332E in both heavy chains; Kn032 with Y349C/T366W, H1032 with D356C/T366S/L368A/Y407V) heavy 1: QDQLVQSGAEVKKPGASVKVSCKASGFNIKDTYIQWVRQAPGQGLEWMGRIDPLRKQTKYREKFEGRVTITADTSTNTAYMELSSLRSEDTAVYYCVRSGREFDYWGQGTLVTVSSASTKGPSVFPLAPSSKSTSGGTAALGCLVKDYFPEPVTVSWNSGALTSGVHTFPAVLQSSGLYSLSSVVTVPSSSLGTQTYICNVNHKPSNTKVDKKVEPKSCDKTHTCPPCPAPELLGGPDVFLFPPKPKDTLMISRTPEVTCVVVDVSHEDPEVKFNWYVDGVEVHNAKTKPREEQYNSTYRVVSVLTVLHQDWLNGKEYKCKVSNKALPLPEEKTISKAKGQPREPQVCTLPPSRDELTKNQVSLWCLVKGFYPSDIAVEWESNGQPENNYKTTPPVLDSDGSFFLYSKLTVDKSRWQQGNVFSCSVMHEALHNHYTQKSLSLSP heavy 2: QDQLVQSGAEVKKPGASVKVSCKASGFNIKDTYIQWVRQAPGQGLEWMGRIDPLRKQTKYREKFEGRVTITADTSTNTAYMELSSLRSEDTAVYYCVRSGREFDYWGQGTLVTVSSASTKGPSVFPLAPSSKSTSGGTAALGCLVKDYFPEPVTVSWNSGALTSGVHTFPAVLQSSGLYSLSSVVTVPSSSLGTQTYICNVNHKPSNTKVDKKVEPKSCDKTHTCPPCPAPELLGGPDVFLFPPKPKDTLMISRTPEVTCVVVDVSHEDPEVKFNWYVDGVEVHNAKTKPREEQYNSTYRVVSVLTVLHQDWLNGKEYKCKVSNKALPLPEEKTISKAKGQPREPQVYTLPPSRCELTKNQVSLSCAVKGFYPSDIAVEWESNGQPENNYKTTPPVLDSDGSFFLVSKLTVDKSRWQQGNVFSCSVMHEALHNHYTQKSLSLSP light: DIQMTQSPSSLSASVGDRVTITCRASQDIHKYIAWYQQKPGQAPRLLIQYTSTLQPGVPSRFSGSGSGTDYTFTISSLQPEDIATYYCLQYEQLRTFGGGTKVEIKRTVAAPSVFIFPPSDEQLKSGTASVVCLLNNFYPREAKVQWKVDNALQSGNSQESVTEQDSKDSTYSLSSTLTLSKADYEKHKVYACEVTHQGLSSPVTKSFNRGEC | 98.7 ratio | 2.2 ratio | 2.8 ratio | 113 times | 54.3 times | 1 times | 1.8 times | 3.9 times | 0.00178 µg/mL | 266 ratio | 36.8 times | –
EGL-GASDALIE (H240-GASDALIE/L73-k0) (antibody, human IgG1, kappa) heavy: QDQLVQSGAEVKKPGASVKVSCKASGFNIKDTYIQWVRQAPGQGLEWMGRIDPLRKQTKYREKFEGRVTITADTSTNTAYMELSSLRSEDTAVYYCVRSGREFDYWGQGTLVTVSSASTKGPSVFPLAPSSKSTSGGTAALGCLVKDYFPEPVTVSWNSGALTSGVHTFPAVLQSSGLYSLSSVVTVPSSSLGTQTYICNVNHKPSNTKVDKKVEPKSCDKTHTCPPCPAPELLAGPDVFLFPPKPKDTLMISRTPEVTCVVVDVSHEDPEVKFNWYVDGVEVHNAKTKPREEQYNSTYRVVSVLTVLHQDWLNGKEYKCKVSNKALPLPEEKTISKAKGQPREPQVYTLPPSRDELTKNQVSLTCLVKGFYPSDIAVEWESNGQPENNYKTTPPVLDSDGSFFLYSKLTVDKSRWQQGNVFSCSVMHEALHNHYTQKSLSLSP light: DIQMTQSPSSLSASVGDRVTITCRASQDIHKYIAWYQQKPGQAPRLLIQYTSTLQPGVPSRFSGSGSGTDYTFTISSLQPEDIATYYCLQYEQLRTFGGGTKVEIKRTVAAPSVFIFPPSDEQLKSGTASVVCLLNNFYPREAKVQWKVDNALQSGNSQESVTEQDSKDSTYSLSSTLTLSKADYEKHKVYACEVTHQGLSSPVTKSFNRGEC | 89.3 ratio | 16.5 ratio | 16.5 ratio | 99.1 times | 21.3 times | 6.9 times | 10.3 times | 3.8 times | 0.00208 µg/mL | – | – | 0.0324 µg/mL
